# Assay results as given in patent US20250263482A1.
# B1: reference mAb (IMAB362, Ganymed) (antibody, INN chains, looked up, V domains shown)
# VH: QVQLQQPGAELVRPGASVKLSCKASGYTFTSYWINWVKQRPGQGLEWIGNIYPSDSYTNYNQKFKDKATLTVDKSSSTAYMQLSSPTSEDSAVYYCTRSWRGNSFDYWGQGTTLTVSS
# VL: DIVMTQSPSSLTVTAGEKVTMSCKSSQSLLNSGNQKNYLTWYQQKPGQPPKLLIYWASTRESGVPDRFTGSGSGTDFTLTISSVQAEDLAVYYCQNDYSYPFTFGSGTKLEIKR
# Target: human CLDN18.2 expressed on cells (human)
# Assay: cell-based or functional assay
binder,measurement,value
B1,"ADCC on KATOIII CLDN18.2 cells, LDH: EC50 (nM), run A",0.12 nM
same,"ADCC on KATOIII CLDN18.2 cells, LDH: EC50 (nM), run B",0.22 nM
same,"ADCC on KATOIII CLDN18.2 cells, LDH: EC50 (nM), run C",0.27 nM
same,"ADCC on KATOIII CLDN18.2 cells, LDH: max (% cytotoxity), run A",27.9%
same,"ADCC on KATOIII CLDN18.2 cells, LDH: max (% cytotoxity), run B",24.5%
same,"ADCC on KATOIII CLDN18.2 cells, LDH: max (% cytotoxity), run C",24.5%
same,"ADCC on NCI-N87 CLDN18.2 cells, LDH: EC50 (nM), run A",0.057 nM
same,"ADCC on NCI-N87 CLDN18.2 cells, LDH: EC50 (nM), run B",0.082 nM
same,"ADCC on NCI-N87 CLDN18.2 cells, LDH: EC50 (nM), run C",0.1 nM
same,"ADCC on NCI-N87 CLDN18.2 cells, LDH: max (% cytotoxity), run A",26.1%
same,"ADCC on NCI-N87 CLDN18.2 cells, LDH: max (% cytotoxity), run B",22.1%
same,"ADCC on NCI-N87 CLDN18.2 cells, LDH: max (% cytotoxity), run C",21.1%
same,"CDC on CT26 CLDN18.2 cells, LDH: EC50 (nM), run A",11.5 nM
same,"CDC on CT26 CLDN18.2 cells, LDH: EC50 (nM), run B",10.7 nM
same,"CDC on CT26 CLDN18.2 cells, LDH: EC50 (nM), run C",11.9 nM
same,"CDC on CT26 CLDN18.2 cells, LDH: max (% cytotoxity), run A",72.5%
same,"CDC on CT26 CLDN18.2 cells, LDH: max (% cytotoxity), run B",54.7%
same,"CDC on CT26 CLDN18.2 cells, LDH: max (% cytotoxity), run C",51.6%
same,"CDC on KATOIII CLDN18.2 cells, LDH: EC50 (nM), run A",38.1 nM
same,"CDC on KATOIII CLDN18.2 cells, LDH: EC50 (nM), run B",22.7 nM
same,"CDC on KATOIII CLDN18.2 cells, LDH: EC50 (nM), run C",27.5 nM
same,"CDC on KATOIII CLDN18.2 cells, LDH: max (% cytotoxity), run A",29.7%
same,"CDC on KATOIII CLDN18.2 cells, LDH: max (% cytotoxity), run B",46%
same,"CDC on KATOIII CLDN18.2 cells, LDH: max (% cytotoxity), run C",34.9%
